One substance from paper PMC2872656 can be followed below.

The assay addresses Pyrococcus abyssi PAB1135 protein (trypsin-treated) (Pyrococcus abyssi) (UniProt Q9UXX8). Briefly: SEC; trypsin-treated PAB1135 on Superdex 75 XK 16/60; 50 mM Tris-HCl pH 8.0, 150 mM NaCl, 0.5 mM EDTA; apparent mass against mass markers. A general note: In gel filtration, larger molecules generally elute earlier.

The stoichiometry N is a count of units in the complex or per binding partner.

As for “Pyrococcus abyssi PAB1135 protein (trypsin-treated) (from UniProt Q9UXX8 1-154) (natural protein)”, the stoichiometry N worked out at 2.
